Assay results taken from PMC11182334 (Cell, 2024).

Legend:
[1] = biological target: recombinant untagged VP6 of bluetongue virus, wild type (bluetongue virus (serotype of the cDNA not stated)); assay: cryo-EM structure
[2] = biological target: T1, VP3 (WT, co-expressed with VP6);VP6 (WT) (Bluetongue virus;Bluetongue virus, UniProt D8V886;D8V892 1-901;1-329, |); assay: cryo-EM
T1 sequence 1: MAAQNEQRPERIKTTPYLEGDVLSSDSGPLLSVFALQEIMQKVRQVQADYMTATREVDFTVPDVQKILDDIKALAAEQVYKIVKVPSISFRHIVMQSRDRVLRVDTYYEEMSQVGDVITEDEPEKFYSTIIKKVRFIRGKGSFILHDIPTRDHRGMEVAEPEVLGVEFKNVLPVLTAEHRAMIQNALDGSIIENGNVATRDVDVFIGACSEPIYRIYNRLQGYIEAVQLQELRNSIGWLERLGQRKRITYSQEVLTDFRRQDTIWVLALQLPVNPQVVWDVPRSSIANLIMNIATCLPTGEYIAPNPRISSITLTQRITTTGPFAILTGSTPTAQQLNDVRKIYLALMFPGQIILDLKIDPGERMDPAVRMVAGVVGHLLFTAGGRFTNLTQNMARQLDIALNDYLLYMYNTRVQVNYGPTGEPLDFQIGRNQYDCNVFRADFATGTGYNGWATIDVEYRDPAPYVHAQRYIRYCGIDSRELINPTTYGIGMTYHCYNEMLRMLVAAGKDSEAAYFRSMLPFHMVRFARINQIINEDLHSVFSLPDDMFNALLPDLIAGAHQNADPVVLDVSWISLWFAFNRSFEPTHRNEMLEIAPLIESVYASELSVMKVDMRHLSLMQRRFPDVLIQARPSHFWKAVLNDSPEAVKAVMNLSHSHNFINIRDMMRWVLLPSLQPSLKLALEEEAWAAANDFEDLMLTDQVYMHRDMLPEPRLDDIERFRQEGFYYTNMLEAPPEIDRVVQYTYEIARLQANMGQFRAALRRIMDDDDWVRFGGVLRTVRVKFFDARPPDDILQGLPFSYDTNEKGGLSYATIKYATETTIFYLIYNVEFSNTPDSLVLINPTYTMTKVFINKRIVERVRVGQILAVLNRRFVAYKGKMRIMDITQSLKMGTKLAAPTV
T1 sequence 2: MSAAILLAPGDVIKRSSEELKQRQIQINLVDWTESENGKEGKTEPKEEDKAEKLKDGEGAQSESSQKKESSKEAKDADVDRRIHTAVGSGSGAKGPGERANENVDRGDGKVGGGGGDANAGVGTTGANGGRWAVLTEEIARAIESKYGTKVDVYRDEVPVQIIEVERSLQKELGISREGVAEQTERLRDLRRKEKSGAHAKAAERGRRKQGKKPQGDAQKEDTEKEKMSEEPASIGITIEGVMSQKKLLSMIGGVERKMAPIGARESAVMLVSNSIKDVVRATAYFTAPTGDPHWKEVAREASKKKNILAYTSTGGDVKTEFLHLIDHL

cryo-EM structure = biological target: the molecule itself; assay: cryo-EM structure
SEC + AUC = biological target: the molecule itself; assay: SEC + AUC
[3] = biological target: T1, VP3 (WT, co-expressed with VP6);VP6 (WT); assay: EMSA

recombinant untagged VP6 of bluetongue virus, wild type (natural protein)
stoichiometry N [1]: 5

B1: 40 nt poly-U ssRNA (ssRNA)
RNA: UUUUUUUUUUUUUUUUUUUUUUUUUUUUUUUUUUUUUUUU
binding result [2]: binds

B2: recombinant His-tagged VP3 of bluetongue virus, wild type (natural protein)
chain: MAAQNEQRPERIKTTPYLEGDVLSSDSGPLLSVFALQEIMQKVRQVQADYMTATREVDFTVPDVQQILDDIKALAAAQVYKIVKVPSTSFRHIVTQSRDRVLRVDTYYEEMSQVGDVITEDEPEKFYSTIIKKVRFIRGKGSFILHDIPARDHRGMEVAEPEVLGVEFKNVLPVLTAEHRAMIQNALDGSIIENGNVATRDVDVFIGACSEPFYRIYNRFQGYIEAVQLQELRNSIGWLERLGQRKRITYSQEVLTDFRRQDMIWVLALQLPVNPQVVWDVPRSSIANLIMNIATCLPTGEYIAPNPRISSITLTQRITTTGPFAILTGSTPTAQQLNDVRKIYLALMFPGQIILDLKIDPGERMDPAVRMVAGVVGHLLFTAGGRFTNLTQNMARQLDIALNDYLLYMYNTRVQVNYGPTGEPLDFQIGRNQYDCNVFRADFATGTGYNGWATIDVEYRDPAPYVHAQRYIRYCGIDSRELINPTTYGIGMTYHCYNEMLRMLVAAGKDSEAAYFRSMLPFHMVRFARINQIINEDLHSVFSLPDDMFNALLPDLIAGAHQNADPVVLDVSWISLWFAFNRSFEPTHRNEMLEIAPLIESVYASELSVMKVDMRHLSLMQRRFPDVLIQARPSHFWKAVLNDSPEAVKAVMNLSHSHNFINIRDMMRWVLLPSLQPSLKLVLEEEAWAAANDFEDLMLTDQVYMHRDMLPEPRLDDIERFRQEGFYYTNMLEAPPEIDRVVQYTYEIARLQANMGQFRAALRRIMDDDDWIGFGGVLRTVRVKFFDARPPDDILQGLPFSYDTNEKGGLSYATIKYATETTIFYLIYNVEFSNTPDSLVLINPTYTMTKVFINKRIVERVRVGQILAVLNRRFVAYKGKMRIMDITQSLKMGTKLAAPTV
stoichiometry N (cryo-EM structure): 4
stoichiometry N (SEC + AUC): ~4

B3: Cy5-labeled 16 nt ssRNA (ssRNA)
RNA: GUUAAAAAAUCGCAUA
apparent K (half saturation) [3]: 192 nM
